Experimental data: US20090312403A1

biological target: mouse B6 class I antigens (H-2^b: D^b or K^b) on RMA-S cells (mouse); experiment: RMA-S cells incubated with peptide (25 ug/ml), flow cytometry with FITC anti-D^b or anti-K^b

Binder	Binding Affinity to Mouse MHC Class I (% increase of D^b or K^b on RMA-S cells)
CMTWNQMNL [WT1 peptide p235-243 (…)]	33.6%
SCLESQPAI [WT1 peptide human p136-144 (…)]	52%
ALLPAVPSL [WT1 peptide human p10-18 (…)]	2.2%
NLYQMTSQL [WT1 peptide p225-233 (…)]	5.8%
GCNKRYFKL [WT1 peptide p329-337 (…)]	1.2%
YSSDNLYQM [WT1 peptide p221-229 (…)]	0.8%
QMTSQLECM [WT1 peptide p228-236 (…)]	1.2%
NQMNLGATL [WT1 peptide p239-247 (…)]	1%

biological target: mouse B6 class I antigens (H-2^b: D^b or K^b) on RMA-S cells (mouse); experiment: binding of 9mer peptide to mouse B6 (H-2^b) class I antigens, RMA-S cell assay

Binder	Binding Affinity to Mouse MHC Class I
PSQASSGQA [WT1 peptide P117-125 (…)]	2%
SQASSGQAR [WT1 peptide P118-126 (…)]	2%
QASSGQARM [WT1 peptide P119-127 (…)]	2%
ASSGQARMF [WT1 peptide P120-128 (…)]	1%
SSGQARMFP [WT1 peptide P121-129 (…)]	1%
QARMFPNAP [WT1 peptide P124-132 (…)]	1%
ARMFPNAPY [WT1 peptide P125-133 (…)]	1%
MFPNAPYLP [WT1 peptide P127-135 (…)]	2%
FPNAPYLPS [WT1 peptide P128-136 (…)]	1%
PNAPYLPSC [WT1 peptide P129-137 (…)]	1%
NAPYLPSCL [WT1 peptide P130-138 (…)]	79%
APYLPSCLE [WT1 peptide P131-139 (…)]	1%
